According to patent publication US20110293599A1 (EWHA UNIVERSITY INDUSTRY COLLABORATION FOUNDATION, published 2011):

T1: Myc-tagged MyoD, full length 318 aa (FL) (UniProt P10085 1-318)
T1 construct: Overexpressed in 293T cells; also called MyoD FL; not shown: Myc tag from the pCMV-Myc vector
T1 sequence (looked up): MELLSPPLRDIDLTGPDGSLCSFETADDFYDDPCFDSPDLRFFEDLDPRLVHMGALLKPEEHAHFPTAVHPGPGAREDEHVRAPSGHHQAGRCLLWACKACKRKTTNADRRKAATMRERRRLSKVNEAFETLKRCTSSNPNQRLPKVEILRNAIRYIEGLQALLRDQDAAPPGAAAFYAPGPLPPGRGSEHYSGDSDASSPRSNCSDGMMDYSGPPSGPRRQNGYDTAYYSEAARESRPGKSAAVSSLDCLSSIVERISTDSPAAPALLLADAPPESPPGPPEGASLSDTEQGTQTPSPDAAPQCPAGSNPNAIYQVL


What was measured:
[1] = target: T1, Myc-tagged MyoD, full length 318 aa (FL); assay: co-immunoprecipitation from 293T cells, Flag-M2 beads, MyoD immunoblot
[2] = target: T2, Flag-tagged TAZ (transcriptional coactivator with PDZ-binding motif), full length (1-395 aa) (Mus musculus (Mouse), UniProt Q9EPK5 1-395); assay: co-immunoprecipitation from 293T cells, Flag-M2 beads, immunoblot
T2 construct: also called TAZ FL; Flag-TAZ; not shown: Flag tag

binding result [1]	binding result [2]	Binder
no binding		TAZ truncation ΔN2 (aa 164-395 TAZ), lacking the WW domain (other, Cotransfected with MyoD into 293T cells; not shown: Flag tag, implied by the precipitation with Flag-M2 beads) NHVNLHPSITSTSVPQRSMAVSQPNLAMNHQHQQVVATSLSPQNHPTQNQPTGLMSVPNALTTQQQQQQKLRLQRIQMERERIRMRQEELMRQEAALCRQLPMETETMAPVNTPAMSTDMRSVTNSSSDPFLNGGPYHSREQSTDSGLGLGCYSVPTTPEDFLSNMDEMDTGENSGQTPMTVNPQQTRFPDFLDCLPGTNVDLGTLESEDLIPLFNDVESALNKSEPFLTWL
	no binding	NT MyoD (MyoD aa 1-102), Myc-tagged (other, UniProt P10085 1-102, looked up, Coexpressed with Flag-TAZ in 293T cells; not shown: Myc tag from the pCMV-Myc vector) MELLSPPLRDIDLTGPDGSLCSFETADDFYDDPCFDSPDLRFFEDLDPRLVHMGALLKPEEHAHFPTAVHPGPGAREDEHVRAPSGHHQAGRCLLWACKACK
